Data published in patent US7871610B2, “Antibodies to Tie1 ectodomain” (Dyax Corp., priority 2003, dated 2011).
Substitutions are numbered along the chain they refer to. “Also recorded” adds a separate entry of the source.

T1: Tie1-EpoR chimeric receptor (UniProt P14753+P35590)
T1 construct: the PCR amplified extracellular part of human Tie1 (bp 37-2316 of X60975); expressed in transfected cells
T1 sequence (P35590+P14753 with tags, fused parts or gaps): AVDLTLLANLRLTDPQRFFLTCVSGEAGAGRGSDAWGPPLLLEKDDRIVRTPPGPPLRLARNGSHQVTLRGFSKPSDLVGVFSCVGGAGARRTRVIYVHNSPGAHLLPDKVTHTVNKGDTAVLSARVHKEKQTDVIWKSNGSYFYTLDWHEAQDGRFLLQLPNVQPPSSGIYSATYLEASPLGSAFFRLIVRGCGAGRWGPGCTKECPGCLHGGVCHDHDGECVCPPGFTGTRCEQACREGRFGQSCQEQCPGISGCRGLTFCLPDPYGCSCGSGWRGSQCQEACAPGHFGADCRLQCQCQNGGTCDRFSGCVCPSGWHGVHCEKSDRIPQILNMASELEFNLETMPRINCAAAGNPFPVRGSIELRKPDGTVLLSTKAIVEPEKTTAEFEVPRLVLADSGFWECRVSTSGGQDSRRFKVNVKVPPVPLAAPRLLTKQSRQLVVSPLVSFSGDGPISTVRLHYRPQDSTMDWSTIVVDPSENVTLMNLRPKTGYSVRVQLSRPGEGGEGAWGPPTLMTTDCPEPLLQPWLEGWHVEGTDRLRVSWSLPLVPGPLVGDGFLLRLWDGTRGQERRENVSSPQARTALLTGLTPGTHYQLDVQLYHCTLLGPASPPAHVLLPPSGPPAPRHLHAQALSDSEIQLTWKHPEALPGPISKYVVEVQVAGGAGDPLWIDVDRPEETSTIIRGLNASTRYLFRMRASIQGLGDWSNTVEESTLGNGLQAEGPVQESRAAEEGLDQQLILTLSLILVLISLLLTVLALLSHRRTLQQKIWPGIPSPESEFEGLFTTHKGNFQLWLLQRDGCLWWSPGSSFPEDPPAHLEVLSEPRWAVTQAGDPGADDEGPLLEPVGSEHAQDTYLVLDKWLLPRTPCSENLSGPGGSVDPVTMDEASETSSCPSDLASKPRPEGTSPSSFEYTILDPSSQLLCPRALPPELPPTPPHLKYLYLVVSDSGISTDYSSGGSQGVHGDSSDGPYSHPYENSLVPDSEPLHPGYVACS

B1: A10: anti-Tie1 antibody; VH SEQ ID NO:60, VL SEQ ID NO:62 (antibody, V domains shown)
VH: EVQLLESGGGLVQPGGSLRLSCAASGFTFSNYVMVWVRQAPGKGLEWVSGIYPSGGHTKYADSVKGRFTISRDNSKNTLYLQMNSLRAEDTAVYYCARVNYYDSSGYGPIAPGLDYWGQGTLV
VL: HSAQDIQMTQSPGTLSLSPGERATLFCRASQRVTSNSLAWYQQRPGQAPRLLIYDASTRATGIPDRFSGSGSGRDFTLTISRLEPEDFAVYYCQRYGSSVLYSFGQGTKLEIT
modifications: Synthetically generated peptide
B2: G2: anti-Tie1 antibody; HC SEQ ID NO:110, LC SEQ ID NO:112 (antibody)
heavy: EVQLLESGGGLVQPGGSLRLSCAASGFTFSSYKMGWVRQAPGRGLEWVSSIYPSGGWTHYADSVKGRFTISRDNSKNTLYLQMNSLRAEDTAVYYCARVLLHYFDYWGQGTLVTVSSASTKGPSVFPLAPSSKSTSGAQRPWAAWSRTTSRDTGDGV
light: QSVLTQPASVSGSPGQSITISCTGTSSDVGGYKYVSWYQQHPGKAPKLIISDVNNRPSGVSDRFSGSKSGNTASLTISGLQAEDDGDYYCSSYASSSYTSSTTWVFGG
modifications: Synthetically generated peptide
B3: A2: anti-Tie1 antibody; VH SEQ ID NO:56, VL SEQ ID NO:58; not the anti-streptavidin A2-SV (antibody, V domains shown)
VH: EVQLLESGGGLVQPGGSLRLSCAASGFTFSRYTMMWVRQAPGKGLEWVSGIYPSGGVTLYADSVKGRFTISRDNSKNTLYLQMNSLRAEDTAVYYCARVNYYDSSGYGPIAPGLDYWGQGTLVTVSSASTKGPSVFP
VL: HSAQDIQMTQSPGTLSLSPGERATLSCRASRSVIISYVAWYQQKPGQAPRLLIYGASTRATGIPDRFSGSGSGTDFTLTISRLEPEDFAVYFCQLYGRSPRIIFGQGTRLEIK
modifications: Synthetically generated peptide
notes: anti-Tie1 antibody; not the anti-streptavidin A2-SV
B4: P-B3: anti-Tie1 antibody; VH SEQ ID NO:24, VL SEQ ID NO:26 (antibody, V domains shown)
VH: EVQLLESGGGLVQPGGSLRLSCAASGFTFSRYGMHWVRQAPGKGLEWVSVISPSGGMTYYADSVKGRFTISRDNTKNTLYLQMNSLRAEDTAVYYCARVGATGPFDIWGQGTMVTVSSASTKGPSVFPLAP
VL: QDIQMTQSPATLSLSPGERATLSCRASQSVSTYLAWYQQKPGQAPRLLIYDASNRATGIPGRFSGSGSGTDFTLTISSLEAEDFAVYYCQQRSSWPITFGQG
modifications: Synthetically generated peptide
B5: P-C6: anti-Tie1 antibody; VH SEQ ID NO:28, VL SEQ ID NO:30 (antibody, V domains shown)
VH: EVQLLESGGGLVQPGGSLRLSCAASGFTFSHYGMTWVRQAPGKGLEWVSVISPSGGQTGYADSVKGRFTISRDNSKNTLYLQMNSLRAEDTAVYYCAGGGYAAFDYWGQGTLVTVSSASTKGPSVFPLAPSSKSTSGGTAALG
VL: B4 VL with T32S, G61A, A81P, S94N, I97L, Q101G
modifications: Synthetically generated peptide
B6: B2: anti-Tie1 antibody; VH SEQ ID NO:64, VL SEQ ID NO:66 (antibody, V domains shown)
VH: EVQLLESGGGLVQPGGSLRLSCAASGFTFSIYGMAWVRQAPGKGLEWVSVISPSGGQTFYADSVKGRFTISRDNSKNTLYLQMNSLRAEDTAVYYCARVYYYGMDVWGQGTTVTVSSASTKGPSVFP
VL: HSAQDIQMTQSPATLSLSPGERATLSCRASQSVSSYLAWYQQKPGQAPRLLIYDASNRATGIPARFSGSGSETDFTLTISSLEPEDFAVYYCQQRSKWPRTFGQGTKLEIK
modifications: Synthetically generated peptide
B7: C7: anti-Tie1 antibody; VH SEQ ID NO:76, VL SEQ ID NO:78 (antibody, V domains shown)
VH: EVQLLESGGGLVQPGGSLRLSCAASGFTFSRYVMYWVRQAPGKGLEWVSVIYPSGGATYYADSVKGRFTISRDNSKNTLYLQMNSLRAEDTAVYYCARRGSSGAFDYWGQGTLVTVSSASTKGPSVFP
VL: HSAQSVLTQPASVSGSPGQSITISCTGTSSDIGRYNYASWYQQRPGKSPKLLIYEVSDRPSGVSNRFSGSKSGNTASLIISGLQAEDEADYYCSSYSSTNSLQVVFGGGTKLSVLGQPKAAPSVTLFPPSSEELQANKATLVCL
modifications: Synthetically generated peptide

Assays:
[1] = target: T1, Tie1-EpoR chimeric receptor; assay: Ba/F3 bioassay (Tie1/EpoR chimeric BaF3 cell assay), MTT viability; type: cell-based, human; conditions: 100 ng/ml E3 IgG together with 100 (1:1) or 500 (1:5) ng/ml of the other antibody
Text: To generate Tie1-EpoR expressing Ba/F3 cells for the bioassay, Ba/F3 pre-B cells were stably transfected with a nucleic acid that expresses chimeric receptor containing the extracellular domain of human Tie1 fused with the transmembrane and cytoplasmic domains of the mouse erythropoietin receptor. The nucleic acid used was a Tie1-EpoR chimeric cDNA in a pEF-BOS expression vector. The nucleic acid encoding the chimeric receptor was constructed by cloning the PCR amplified extracellular part of human Tie1 (bp 37-2316 of X60975) as EcoRI-BglII fragment into mEpoR-pcDNA vector. The cDNA encoding for the chimeric receptor consisting of the extracellular part of Tie1 fused with the transmembrane and intracellular domains of EpoR was subcloned into the pEF-BOS expression vector. Vector was linearized and co-transfected into Ba/F3 cells with pcDNA3.1(+) Zeo vector (Invitrogen). Stable cell pools were generated by selection with 250 μg/ml Zeocin. The expression of Tie1/EpoR fusion protein in several clones was analyzed by Western blotting with an antibody against EpoR.
To perform the assays, Ba/F3 cells expressing the Tie 1-EpoR chimera were split in 96-well microtiter plates at 50 000 cells/well in the presence of the indicated concentrations of anti-Tie1 antibodies. As controls, Zeocin resistant pools not expressing the Tie1-EpoR were used. After 48 h, the viability of the cells was determined by adding MTT (3-(4,5-dimethylthiazol-2-yl)-2,5-diphenyl tetrazolium bromide (Sigma), 0.5 mg/ml), followed by further 2 h of culture, addition of an equal volume of cell lysis solution (10% SDS, 10 mM HCl) and incubation overnight at 37° C. Absorbance was measured at 540 nm.
Although no ligand for Tie1 has been identified, we used the following efficient screening method for Tie1-binding proteins. Interleukin-3 dependent pre-B-lymphocyte (Ba/F3) cells were transfected with a construct that expresses a Tie1-EpoR fusion protein. Since Ba/F3 cells are IL-3 dependent, they die unless IL-3 is provided. However, Tie-EpoR receptor expressing Ba/F3 cells can survive and proliferate if the medium contains a Tie1-binding protein, either a natural ligand or an artificial mimetic. Cell survival can be quantitated, e.g., by colorimetric MTT-assay, which measures mitochondrial activity.

Tie1 = Tie1 (Homo sapiens, UniProt P35590); assay: Immunohistochemistry of matched human tumor and normal tissue sections; set-up: from tissue; host or cells: fresh frozen normal and tumor tissue (e.g. lung, kidney, skin, breast); conditions: fresh frozen tissue
Tie1, sequence (P35590 22-1138): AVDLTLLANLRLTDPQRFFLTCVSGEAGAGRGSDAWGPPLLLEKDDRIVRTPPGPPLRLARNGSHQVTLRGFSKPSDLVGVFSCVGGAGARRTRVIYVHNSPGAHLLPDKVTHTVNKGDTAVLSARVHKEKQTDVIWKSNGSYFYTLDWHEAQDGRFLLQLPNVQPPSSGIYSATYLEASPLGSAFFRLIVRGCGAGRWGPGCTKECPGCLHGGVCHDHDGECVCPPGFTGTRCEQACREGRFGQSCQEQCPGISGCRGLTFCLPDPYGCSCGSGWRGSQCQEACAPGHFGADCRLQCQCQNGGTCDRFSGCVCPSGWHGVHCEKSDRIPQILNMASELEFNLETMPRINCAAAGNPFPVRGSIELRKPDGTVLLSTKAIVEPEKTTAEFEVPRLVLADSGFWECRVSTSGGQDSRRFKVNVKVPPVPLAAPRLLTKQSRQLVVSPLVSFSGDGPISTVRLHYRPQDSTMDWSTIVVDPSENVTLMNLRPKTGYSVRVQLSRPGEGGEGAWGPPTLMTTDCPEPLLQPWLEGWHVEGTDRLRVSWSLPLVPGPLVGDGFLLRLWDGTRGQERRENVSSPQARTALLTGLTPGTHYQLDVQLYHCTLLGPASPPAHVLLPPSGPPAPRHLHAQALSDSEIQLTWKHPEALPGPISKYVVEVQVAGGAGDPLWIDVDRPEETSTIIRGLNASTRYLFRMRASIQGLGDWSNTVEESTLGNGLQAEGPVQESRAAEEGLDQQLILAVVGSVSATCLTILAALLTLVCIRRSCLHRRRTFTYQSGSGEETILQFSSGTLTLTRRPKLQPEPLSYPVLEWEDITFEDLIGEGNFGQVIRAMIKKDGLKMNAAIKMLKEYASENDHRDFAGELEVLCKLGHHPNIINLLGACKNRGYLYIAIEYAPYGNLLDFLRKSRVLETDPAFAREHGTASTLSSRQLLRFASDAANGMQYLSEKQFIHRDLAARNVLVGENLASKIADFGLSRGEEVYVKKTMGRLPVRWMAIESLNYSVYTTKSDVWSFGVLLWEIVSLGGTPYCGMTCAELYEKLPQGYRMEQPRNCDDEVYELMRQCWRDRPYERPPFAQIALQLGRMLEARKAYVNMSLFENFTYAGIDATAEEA
Experimental: The Tie-1 antibodies were biotinylated using the EZ-link Sulfo-NHS-SS-Biotin (Pierce, Cat. 21331). For Tie-1/Fc and Tie-1-His, the reaction was performed for 2 hours on ice in 50 mM sodium carbonate buffer, pH 9.6, in the presence of a 5-fold molar excess of biotinylating agent. For the antibodies, the reaction was performed for 2 hours on ice in PBS, in the presence of a 15-fold molar excess of EZ-link Sulfo-NHS-SS-Biotin. The reaction was stopped by the addition of Tris-HCl, pH 7.5 (50 mM final concentration) followed by a 1-hour incubation on ice. Samples were then dialyzed against PBS.
Various normal and tumor tissue sections were stained with biotinylated antibodies. A mouse monoclonal anti-Tie1 antibody (7e8) (Alitalo laboratory, University of Helsinki) was used as a positive control. Sections without primary antibody served as negative control. All samples were fresh frozen tissues and staining was performed with the TSA-kit (Perkin-Elmer Life Sciences). After acetone fixation (10-20 min, −20° C.) the slides were treated with 0.73% H2O2 for 10 min to reduce endogenous peroxidase activity followed by blocking for 30 min with TNB buffer. Sections ([…] thick) were incubated with primary antibodies (10 μg/ml) overnight at 4° C. Sections with the mouse monoclonal anti-tie1 antibody (7e8) were treated with biotinylated anti-mouse antibodies (VectaStain) before the addition of streptavidin-HRP. Signal was amplified by using a TSA kit and the visualized by AEC (235 ml NaAc, 15 ml AEC (stock solution: 1600 mg 3-amino-9-ethyl-carbazole and 480 ml N-dimethylformamide), 250 μl H2O2).

Row | Molecule | effect on the survival effect of E3 IgG in Tie1-EpoR Ba/F3 assay [1] | also measured
1 | B1 | inhibited the viability effect of E3 IgG to some extent | –
2 | B2 | promoted the survival | –
3 | B3 | inhibited the viability effect of E3 IgG to some extent | –
4 | B4 | inhibited the viability effect of E3 IgG to some extent | –
5 | B5 | inhibited the viability effect of E3 IgG to some extent | –
6 | B6 | completely blocked the viability; also recorded: blocked completely the survival effect of E3 IgG; also recorded: counteract the agonistic activity of E3 | staining of breast carcinoma (Tie1; 10 μg/ml): stained also other structures in addition to vessels; staining of kidney (Tie1; 10 μg/ml): only very faint staining of either tubules or vessels; staining of lung carcinoma (Tie1; 10 μg/ml): stained structures other than vessels; staining of melanoma tissue (Tie1; 10 μg/ml): also stained other surrounding structures; staining of normal lung (large veins) (Tie1; 10 μg/ml): did not stain the same veins; staining of normal skin (Tie1; 10 μg/ml): stained blood vessels very faintly; staining of vessels in normal tissues (tissue specificity) (Tie1; biotinylated IgG 10 μg/ml): stained vessels very faintly in other normal tissues than in the breast
7 | B7 | promoted the survival | –
